Experimental findings from publication PMC5102582 (eLife, 2016) are described below.

Data set [1] deals with the molecule itself. Kind of data set: SEC; HiLoad 16/60 Superdex 200 gel filtration column, during purification of full-length p47. (SEC sorts molecules by how far they enter the pores of the column.)
In data set [2] the target is T1, wt ND1Lp97-ADP (p97/VCP residues 1-480: NTD, D1 and the D1-D2 linker) (Homo sapiens/Mus musculus (identical), UniProt P55072 1-480).
T1 construct: p97/VCP, Homo sapiens/Mus musculus (identical), UniProt P55072 versus Q01853, residues 1-480; highly deuterated, ILVM-13CH3 methyl labelled; 320 kDa hexamer (6 x 53 kDa); also called p97 ND1L 1-480; NDL1p97-ADP; not shown: His6, N-terminal, cleaved
Kind of data set: NMR titration; methyl-TROSY 13C-1H HMQC chemical shift titration of ILVM-13CH3 wt ND1Lp97-ADP with perdeuterated UBXD1-N; global analysis of V68, L140, I175, I182; effective macroscopic Kd; 50°C; 25 mM HEPES pH 7.0, 50 mM NaCl, 10 mM ADP, 5 mM TCEP, D2O; a new sample for each ligand concentration. The conditions noted are these: both partners purified.

A further data set deals with T2, R155P ND1Lp97-ADP (Homo sapiens/Mus musculus (identical), UniProt P55072 1-480, R155P).
T2 construct: p97/VCP, Homo sapiens/Mus musculus (identical), residues 1-480, IBMPFD disease mutation R155P; deuterated, ILVM-13CH3 labelled; mutation found in IBMPFD patients; not shown: His6, N-terminal, cleaved
Put plainly: NMR titration; one point: 150 µM UBXD1-N added to 50 µM (monomer) wt or mutant ND1Lp97-ADP (3:1); methyl-TROSY HMQC CSPs; Kd from the bound fraction by the V68 shift; 50°C; 25 mM HEPES pH 7.0, 50 mM NaCl, 10 mM ADP, 5 mM TCEP, D2O. As to conditions: both partners purified.

The next data set concerns the target T3, N387H ND1Lp97-ADP (Homo sapiens/Mus musculus (identical), UniProt P55072 1-480, N387H).
T3 construct: p97/VCP, Homo sapiens/Mus musculus (identical), residues 1-480, IBMPFD disease mutation N387H; deuterated, ILVM-13CH3 labelled; mutation found in IBMPFD patients; not shown: His6, N-terminal, cleaved
The data set is described as above. The conditions noted are these: both partners purified.

The target in another data set is T4, R155H ND1Lp97-ADP (Homo sapiens/Mus musculus (identical), UniProt P55072 1-480, R155H).
T4 construct: p97/VCP, Homo sapiens/Mus musculus (identical), residues 1-480, IBMPFD disease mutation R155H; deuterated, ILVM-13CH3 labelled; mutation found in IBMPFD patients; not shown: His6, N-terminal, cleaved
The description is as above. The conditions noted are these: both partners purified.

The next data set concerns the target T5, R95G ND1Lp97-ADP (Homo sapiens/Mus musculus (identical), UniProt P55072 1-480, R95G).
T5 construct: p97/VCP, Homo sapiens/Mus musculus (identical), residues 1-480, IBMPFD disease mutation R95G; deuterated, ILVM-13CH3 labelled; mutation found in IBMPFD patients; also called R95G mutant; not shown: His6, N-terminal, cleaved
The description is as above. As to conditions: both partners purified.

T2 sequence (P55072 1-480 R155P): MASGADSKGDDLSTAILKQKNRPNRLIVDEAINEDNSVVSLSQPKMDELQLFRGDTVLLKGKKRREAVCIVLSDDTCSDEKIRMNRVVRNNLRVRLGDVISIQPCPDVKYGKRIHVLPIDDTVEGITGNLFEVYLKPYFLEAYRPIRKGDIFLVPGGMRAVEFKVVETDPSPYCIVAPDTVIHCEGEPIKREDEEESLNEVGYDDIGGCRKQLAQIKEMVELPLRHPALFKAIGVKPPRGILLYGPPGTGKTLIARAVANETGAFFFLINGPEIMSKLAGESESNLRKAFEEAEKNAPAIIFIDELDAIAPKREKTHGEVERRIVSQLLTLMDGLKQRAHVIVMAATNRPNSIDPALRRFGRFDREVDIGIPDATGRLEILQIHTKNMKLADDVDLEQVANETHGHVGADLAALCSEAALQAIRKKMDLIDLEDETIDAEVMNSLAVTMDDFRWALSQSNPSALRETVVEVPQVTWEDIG
T5 sequence (P55072 1-480 R95G): as the sequence (P55072 1-480 R155P) above, with R95G, P155R counted along it
T1 sequence (P55072 1-480): as the sequence (P55072 1-480 R155P) above, with P155R counted along it
T3 sequence (P55072 1-480 N387H): as the sequence (P55072 1-480 R155P) above, with P155R, N387H counted along it
T4 sequence (P55072 1-480 R155H): as the sequence (P55072 1-480 R155P) above, with P155H counted along it

B1: full-length p47 (natural protein, Mus musculus, UniProt Q9CZ44 1-370, looked up)
chain: MAEERQDALREFVAVTGTEEDRARFFLESAGWDLQIALASFYEDGGDEDIVTISQATPSSVSRGTAPSDNRVTSFRDLIHDQDEEEEEEEGQRFYAGGSERSGQQIVGPPRKKSPNELVDDLFKGAKEHGAVAVERVTKSPGETSKPRPFAGGGYRLGAAPEEESAYVAGERRRHSGQDVHVVLKLWKTGFSLDNGDLRSYQDPSNAQFLESIRRGEVPAELRRLAHGGQVNLDMEDHRDEDFVKPKGAFKAFTGEGQKLGSTAPQVLNTSSPAQQAENEAKASSSILINEAEPTTNIQIRLADGGRLVQKFNHSHRISDIRLFIVDARPAMAATSFVLMTTFPNKELADENQTLKEANLLNAVIVQRLT
notes: p47 (NSFL1 cofactor p47), Mus musculus, full length; perdeuterated; eluted as a trimer on gel filtration; also called p47 trimer; not shown: His6, N-terminal, cleaved
For the molecule B1, the stoichiometry N (usually the number of molecules, sites or subunits per partner or assembly) in data set [1] came to 3.

B2: UBXD1-N (N-terminal portion of UBXD1, residues 1-133) (domain or fragment, Mus musculus, UniProt Q99PL6 1-133, looked up)
chain: MKKFFQEIKADIKFKSAGPGQKLTDSAGEKTTKGKSPQLALRQPRQGPTDEAQMAAAAALARLEQKQPRARGPTSQDSIRNQVRKELQAEATSSNNPGAPGTNSVPEPKEEISPHLAVPGVFFICPLTGVTLR
notes: UBXD1, Mus musculus, residues 1-133 (holds H1/H2 and VIM, residues 52-63); perdeuterated; construct after Trusch et al., 2015; not shown: His6, N-terminal, cleaved
For B2, the Kd (in general, the equilibrium constant for the complex coming apart) in data set [2] was 22 ± 2 µM; with R155P ND1Lp97-ADP, roughly 200 µM; with N387H ND1Lp97-ADP, roughly 80 µM; with R155H ND1Lp97-ADP, roughly 80 µM; with R95G ND1Lp97-ADP it was roughly 200 µM.
